Laboratory results: US20220339270A1

The substances below were run against wild-type tau (Tau441) (human) (UniProt P10636) (assay: ELISA, Tau441 on plate; antibody at […]).
Sequence of wild-type tau (Tau441) (human) (P10636 other isoform, or with tags, fused parts or gaps limits assumed): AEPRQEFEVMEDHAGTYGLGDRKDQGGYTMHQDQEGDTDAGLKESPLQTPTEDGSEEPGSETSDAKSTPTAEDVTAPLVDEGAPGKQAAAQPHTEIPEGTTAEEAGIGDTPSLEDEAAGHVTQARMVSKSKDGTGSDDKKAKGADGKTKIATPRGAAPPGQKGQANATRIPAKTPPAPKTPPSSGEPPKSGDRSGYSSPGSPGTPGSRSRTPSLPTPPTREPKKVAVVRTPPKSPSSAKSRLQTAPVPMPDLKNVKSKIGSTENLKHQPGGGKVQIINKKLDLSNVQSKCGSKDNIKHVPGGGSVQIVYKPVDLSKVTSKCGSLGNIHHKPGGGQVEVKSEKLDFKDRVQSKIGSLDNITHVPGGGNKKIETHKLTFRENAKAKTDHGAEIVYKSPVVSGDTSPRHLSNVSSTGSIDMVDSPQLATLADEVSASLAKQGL

Substance	OD450 [OD450]
43D (anti-tau, 1-100; BioLegend cat #816601) (antibody)	0.4
PHF-6 (anti-tau phospho Th231; BioLegend cat #828901) (antibody)	0.1
PHF-13 (anti-tau phospho Ser396; BioLegend cat #829001) (antibody)	0
Tau5 (anti-tau, 210-230; BioLegend cat #806401) (antibody)	0.2
Tau12 (anti-tau, 6-18; BioLegend cat #806501) (antibody)	0.4
Tau46 (anti-tau, 404-421; BioLegend cat #806601) (antibody)	0.2
Tau-13 (anti-tau, 20-35; BioLegend cat #835201) (antibody)	0.2

What follows are substances tested against wild-type tau (Tau441) (human) (UniProt P10636) (assay: ELISA, Tau441 on plate; antibody at 4.1 ng/mL).

Substance	OD450 [OD450]
43D (anti-tau, 1-100; BioLegend cat #816601) (antibody)	0.9
PHF-6 (anti-tau phospho Th231; BioLegend cat #828901) (antibody)	0
PHF-13 (anti-tau phospho Ser396; BioLegend cat #829001) (antibody)	0
Tau5 (anti-tau, 210-230; BioLegend cat #806401) (antibody)	0.6
Tau12 (anti-tau, 6-18; BioLegend cat #806501) (antibody)	0.9
Tau46 (anti-tau, 404-421; BioLegend cat #806601) (antibody)	0.4
Tau-13 (anti-tau, 20-35; BioLegend cat #835201) (antibody)	0.5

The substances below were run against wild-type tau (Tau441) (human) (UniProt P10636) (assay: ELISA, Tau441 on plate; antibody at 12.3 ng/mL).

Substance	OD450 [OD450]
43D (anti-tau, 1-100; BioLegend cat #816601) (antibody)	2
PHF-6 (anti-tau phospho Th231; BioLegend cat #828901) (antibody)	0
PHF-13 (anti-tau phospho Ser396; BioLegend cat #829001) (antibody)	0.1
Tau5 (anti-tau, 210-230; BioLegend cat #806401) (antibody)	1.2
Tau12 (anti-tau, 6-18; BioLegend cat #806501) (antibody)	2
Tau46 (anti-tau, 404-421; BioLegend cat #806601) (antibody)	1
Tau-13 (anti-tau, 20-35; BioLegend cat #835201) (antibody)	1.2

The substances below were run against wild-type tau (Tau441) (human) (UniProt P10636) (assay: ELISA, Tau441 on plate; antibody at 37.0 ng/mL).

Substance	OD450 [OD450]
43D (anti-tau, 1-100; BioLegend cat #816601) (antibody)	3
PHF-6 (anti-tau phospho Th231; BioLegend cat #828901) (antibody)	0
PHF-13 (anti-tau phospho Ser396; BioLegend cat #829001) (antibody)	0
Tau5 (anti-tau, 210-230; BioLegend cat #806401) (antibody)	2.6
Tau12 (anti-tau, 6-18; BioLegend cat #806501) (antibody)	3.1
Tau46 (anti-tau, 404-421; BioLegend cat #806601) (antibody)	2
Tau-13 (anti-tau, 20-35; BioLegend cat #835201) (antibody)	2.3

The substances below were run against wild-type tau (Tau441) (human) (UniProt P10636) (assay: ELISA, Tau441 on plate; antibody at 111.1 ng/mL).

Substance	OD450 [OD450]
43D (anti-tau, 1-100; BioLegend cat #816601) (antibody)	3.2
PHF-6 (anti-tau phospho Th231; BioLegend cat #828901) (antibody)	0
PHF-13 (anti-tau phospho Ser396; BioLegend cat #829001) (antibody)	0.1
Tau5 (anti-tau, 210-230; BioLegend cat #806401) (antibody)	3.3
Tau12 (anti-tau, 6-18; BioLegend cat #806501) (antibody)	3.3
Tau46 (anti-tau, 404-421; BioLegend cat #806601) (antibody)	3
Tau-13 (anti-tau, 20-35; BioLegend cat #835201) (antibody)	3.1

Each substance was assayed against wild-type tau (Tau441) (human) (UniProt P10636) (assay: ELISA, Tau441 on plate; antibody at 333.3 ng/mL).

Substance	OD450 [OD450]
43D (anti-tau, 1-100; BioLegend cat #816601) (antibody)	3.3
PHF-6 (anti-tau phospho Th231; BioLegend cat #828901) (antibody)	0
PHF-13 (anti-tau phospho Ser396; BioLegend cat #829001) (antibody)	0.1
Tau5 (anti-tau, 210-230; BioLegend cat #806401) (antibody)	3.3
Tau12 (anti-tau, 6-18; BioLegend cat #806501) (antibody)	3.3
Tau46 (anti-tau, 404-421; BioLegend cat #806601) (antibody)	3.2
Tau-13 (anti-tau, 20-35; BioLegend cat #835201) (antibody)	3.2

These substances were tested against wild-type tau (Tau441) (human) (UniProt P10636) (assay: ELISA, Tau441 on plate; antibody at 1000.0 ng/mL).

Substance	OD450 [OD450]
43D (anti-tau, 1-100; BioLegend cat #816601) (antibody)	3.2
PHF-6 (anti-tau phospho Th231; BioLegend cat #828901) (antibody)	0.1
PHF-13 (anti-tau phospho Ser396; BioLegend cat #829001) (antibody)	0.1
Tau5 (anti-tau, 210-230; BioLegend cat #806401) (antibody)	3.3
Tau12 (anti-tau, 6-18; BioLegend cat #806501) (antibody)	3.3
Tau46 (anti-tau, 404-421; BioLegend cat #806601) (antibody)	3.2
Tau-13 (anti-tau, 20-35; BioLegend cat #835201) (antibody)	3.2

The substances below were run against wild-type tau (Tau441) (human) (UniProt P10636) (assay: ELISA, Tau441 on plate; antibody at 0.0 ng/mL [sic]).

Substance	OD450 [OD450]
43D (anti-tau, 1-100; BioLegend cat #816601) (antibody)	0
PHF-6 (anti-tau phospho Th231; BioLegend cat #828901) (antibody)	0
PHF-13 (anti-tau phospho Ser396; BioLegend cat #829001) (antibody)	0
Tau5 (anti-tau, 210-230; BioLegend cat #806401) (antibody)	0.1
Tau12 (anti-tau, 6-18; BioLegend cat #806501) (antibody)	0
Tau46 (anti-tau, 404-421; BioLegend cat #806601) (antibody)	0.1
Tau-13 (anti-tau, 20-35; BioLegend cat #835201) (antibody)	0

What follows are substances tested against extracellular tau in the form of paired helical filaments (ePHF tau) (UniProt P10636) (assay: anti-eTau ELISA of ExpiCHO supernatant, concentration of tau-binding antibody).
Sequence of extracellular tau in the form of paired helical filaments (ePHF tau) (P10636 other isoform, or with tags, fused parts or gaps limits assumed): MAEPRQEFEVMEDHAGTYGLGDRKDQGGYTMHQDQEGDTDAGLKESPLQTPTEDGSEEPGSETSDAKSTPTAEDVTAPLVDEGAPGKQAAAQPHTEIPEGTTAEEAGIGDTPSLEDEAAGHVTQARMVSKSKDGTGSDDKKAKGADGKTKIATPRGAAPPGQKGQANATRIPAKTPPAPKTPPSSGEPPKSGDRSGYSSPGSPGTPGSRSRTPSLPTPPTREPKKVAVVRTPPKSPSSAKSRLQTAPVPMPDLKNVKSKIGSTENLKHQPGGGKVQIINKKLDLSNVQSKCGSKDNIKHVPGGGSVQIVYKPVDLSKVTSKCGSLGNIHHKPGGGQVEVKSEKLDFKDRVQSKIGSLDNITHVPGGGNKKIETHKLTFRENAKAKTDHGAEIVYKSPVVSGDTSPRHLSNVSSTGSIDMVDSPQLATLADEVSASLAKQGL

Substance	anti-eTau ELISA antibody concentration [ng/mL]
PHF1 antibody expressed from viral genome construct TAU_ITR70 (PHF-1 LF2AH) (antibody; other documents disagree on this pair)	4280
PHF1 antibody expressed from viral genome construct TAU_ITR85 (PHF-1 HF.F2AL) (antibody; other documents disagree on this pair)	18.8
PHF1 antibody expressed from viral genome construct TAU_ITR86 (PHF-1 LF2AH) (antibody; other documents disagree on this pair)	1530
